B1: Vacuolar protein-sorting-associated protein 36 (Saccharomyces cerevisiae), Q06696 (parent)
chain: MEYWHYVETTSSGQPLLREGEKDIFIDQSVGLYHGKSKILQRQRGRIFLTSQRIIYIDDAKPTQNSLGLELDDLAYVNYSSGFLTRSPRLILFFKDPSSKDELGKSAETASADVVSTWVCPICMVSNETQGEFTKDTLPTPICINCGVPADYELTKSSINCSNAIDPNANPQNQFGVNSENICPACTFANHPQIGNCEICGHRLPNASKVRSKLNRLNFHDSRVHIELEKNSLARNKSSHSALSSSSSTGSSTEFVQLSFRKSDGVLFSQATERALENILTEKNKHIFNQNVVSVNGVDMRKGASSHEYNNEVPFIETKLSRIGISSLEKSRENQLLNNDILFNNALTDLNKLMSLATSIERLYKNSNITMKTKTLNLQDESTVNEPKTRRPLLILDREKFLNKELFLDEIAREIYEFTLSEFKDLNSDTNYMIITLVDLYAMYNKSMRIGTGLISPMEMREACERFEHLGLNELKLVKVNKRILCVTSEKFDVVKEKLVDLIGDNPGSDLLRLTQILSSNNSKSNWTLGILMEVLQNCVDEGDLLIDKQLSGIYYYKNSYWPSHI
partner: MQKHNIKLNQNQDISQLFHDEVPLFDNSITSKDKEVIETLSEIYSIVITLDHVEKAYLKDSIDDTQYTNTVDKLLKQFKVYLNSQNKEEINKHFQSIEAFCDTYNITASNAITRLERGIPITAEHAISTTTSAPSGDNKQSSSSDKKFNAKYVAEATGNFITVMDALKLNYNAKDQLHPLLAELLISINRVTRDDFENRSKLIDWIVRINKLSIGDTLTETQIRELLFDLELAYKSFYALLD

Variants of: B1
Details: with vps28_yeast VPS28, Q02767

Variant | effect of a mutation on the interaction
MEYWHYVETTSSGQPLLREGEKDIFIDQSVGLYHGKSKILQRQRGRIFLTSQRIIYIDDAKPTQNSLGLELDDLAYVNYSSGFLTRSPRLILFFKDPSSKDELGKSAETASADVVSTWVCPICMVSNETQGEFTKDTLPTPICINCGVPARYERTKSSINCSNAIDPNANPQNQFGVNSENICPACTFANHPQIGNCEICGHRLPNASKVRSKLNRLNFHDSRVHIELEKNSLARNKSSHSALSSSSSTGSSTEFVQLSFRKSDGVLFSQATERALENILTEKNKHIFNQNVVSVNGVDMRKGASSHEYNNEVPFIETKLSRIGISSLEKSRENQLLNNDILFNNALTDLNKLMSLATSIERLYKNSNITMKTKTLNLQDESTVNEPKTRRPLLILDREKFLNKELFLDEIAREIYEFTLSEFKDLNSDTNYMIITLVDLYAMYNKSMRIGTGLISPMEMREACERFEHLGLNELKLVKVNKRILCVTSEKFDVVKEKLVDLIGDNPGSDLLRLTQILSSNNSKSNWTLGILMEVLQNCVDEGDLLIDKQLSGIYYYKNSYWPSHI [D151R;L154R] | disrupting interaction

Variants of: B1
Details: with vps28_yeast VPS28, Q02767
Remark: another data set of the same source

Variant | effect of a mutation on the interaction
MEYWHYVETTSSGQPLLREGEKDIFIDQSVGLYHGKSKILQRQRGRIFLTSQRIIYIDDAKPTQNSLGLELDDLAYVNYSSGFLTRSPRLILFFKDPSSKDELGKSAETASADVVSTWVCPDCMVSNETQGEFTKDTLPTPICINCGVPADYELTKSSINCSNAIDPNANPQNQFGVNSENICPACTFANHPQIGNCEICGHRLPNASKVRSKLNRLNFHDSRVHIELEKNSLARNKSSHSALSSSSSTGSSTEFVQLSFRKSDGVLFSQATERALENILTEKNKHIFNQNVVSVNGVDMRKGASSHEYNNEVPFIETKLSRIGISSLEKSRENQLLNNDILFNNALTDLNKLMSLATSIERLYKNSNITMKTKTLNLQDESTVNEPKTRRPLLILDREKFLNKELFLDEIAREIYEFTLSEFKDLNSDTNYMIITLVDLYAMYNKSMRIGTGLISPMEMREACERFEHLGLNELKLVKVNKRILCVTSEKFDVVKEKLVDLIGDNPGSDLLRLTQILSSNNSKSNWTLGILMEVLQNCVDEGDLLIDKQLSGIYYYKNSYWPSHI [I122D] | disrupting interaction

Variants of: B1
Details: with vps28_yeast VPS28, Q02767
Remark: another data set of the same source

Variant | effect of a mutation on the interaction
MEYWHYVETTSSGQPLLREGEKDIFIDQSVGLYHGKSKILQRQRGRIFLTSQRIIYIDDAKPTQNSLGLELDDLAYVNYSSGFLTRSPRLILFFKDPSSKDELGKSAETASADVVSTWVCPICMVSNETQGEFTKDTLPTPICINCGDPARYELTKSSINCSNAIDPNANPQNQFGVNSENICPACTFANHPQIGNCEICGHRLPNASKVRSKLNRLNFHDSRVHIELEKNSLARNKSSHSALSSSSSTGSSTEFVQLSFRKSDGVLFSQATERALENILTEKNKHIFNQNVVSVNGVDMRKGASSHEYNNEVPFIETKLSRIGISSLEKSRENQLLNNDILFNNALTDLNKLMSLATSIERLYKNSNITMKTKTLNLQDESTVNEPKTRRPLLILDREKFLNKELFLDEIAREIYEFTLSEFKDLNSDTNYMIITLVDLYAMYNKSMRIGTGLISPMEMREACERFEHLGLNELKLVKVNKRILCVTSEKFDVVKEKLVDLIGDNPGSDLLRLTQILSSNNSKSNWTLGILMEVLQNCVDEGDLLIDKQLSGIYYYKNSYWPSHI [V148D;D151R] | disrupting interaction

Variants of: B1
Details: with vps28_yeast VPS28, Q02767
Remark: another data set of the same source

Variant | effect of a mutation on the interaction
MEYWHYVETTSSGQPLLREGEKDIFIDQSVGLYHGKSKILQRQRGRIFLTSQRIIYIDDAKPTQNSLGLELDDLAYVNYSSGFLTRSPRLILFFKDPSSKDELGKSAETASADVVSTWVCPDCMVSNETQGEFTKDTLPTPICINCGDPADYELTKSSINCSNAIDPNANPQNQFGVNSENICPACTFANHPQIGNCEICGHRLPNASKVRSKLNRLNFHDSRVHIELEKNSLARNKSSHSALSSSSSTGSSTEFVQLSFRKSDGVLFSQATERALENILTEKNKHIFNQNVVSVNGVDMRKGASSHEYNNEVPFIETKLSRIGISSLEKSRENQLLNNDILFNNALTDLNKLMSLATSIERLYKNSNITMKTKTLNLQDESTVNEPKTRRPLLILDREKFLNKELFLDEIAREIYEFTLSEFKDLNSDTNYMIITLVDLYAMYNKSMRIGTGLISPMEMREACERFEHLGLNELKLVKVNKRILCVTSEKFDVVKEKLVDLIGDNPGSDLLRLTQILSSNNSKSNWTLGILMEVLQNCVDEGDLLIDKQLSGIYYYKNSYWPSHI [I122D;V148D] | disrupting interaction

— IntAct's records for PubMed 17215868
